Earlier results as cited in article PMC4411291.

Target: Calmodulin (UniProt P0DP23)

Kd: 1000 nM
Substance: STIM2 C-terminal site (from UniProt Q9P246)
